In publication doi:10.1101/331207 (bioRxiv, 2018):

Target: the molecule itself
Test: cryo-EM structure

B1: human LRRC8A (leucine-rich repeat-containing 8A) wild-type protein (natural protein)
chain: MIPVTELRYFADTQPAYRILKPWWDVFTDYISIVMLMIAVFGGTLQVTQDKMICLPCKWVTKDSCNDSFRGWAAPGPEPTYPNSTILPTPDTGPTGIKYDLDRHQYNYVDAVCYENRLHWFAKYFPYLVLLHTLIFLACSNFWFKFPRTSSKLEHFVSILLKCFDSPWTTRALSETVVEESDPKPAFSKMNGSMDKKSSTVSEDVEATVPMLQRTKSRIEQGIVDRSETGVLDKKEGEQAKALFEKVKKFRTHVEEGDIVYRLYMRQTIIKVIKFILIICYTVYYVHNIKFDVDCTVDIESLTGYRTYRCAHPLATLFKILASFYISLVIFYGLICMYTLWWMLRRSLKKYSFESIREESSYSDIPDVKNDFAFMLHLIDQYDPLYSKRFAVFLSEVSENKLRQLNLNNEWTLDKLRQRLTKNAQDKLELHLFMLSGIPDTVFDLVELEVLKLELIPDVTIPPSIAQLTGLKELWLYHTAAKIEAPALAFLRENLRALHIKFTDIKEIPLWIYSLKTLEELHLTGNLSAENNRYIVIDGLRELKRLKVLRLKSNLSKLPQVVTDVGVHLQKLSINNEGTKLIVLNSLKKMANLTELELIRCDLERIPHSIFSLHNLQEIDLKDNNLKTIEEIISFQHLHRLTCLKLWYNHIAYIPIQIGNLTNLERLYLNRNKIEKIPTQLFYCRKLRYLDLSHNNLTFLPADIGLLQNLQNLAITANRIETLPPELFQCRKLRALHLGNNVLQSLPSRVGELTNLTQIELRGNRLECLPVELGECPLLKRSGLVVEEDLFNTLPPEVKERLWRADKEQA
stoichiometry N: 6
